Experimental findings from patent publication US20240293553A1, “P-SELECTIN INHIBITORS AND USES THEREOF” (Beth Israel Deaconess Medical Center, Inc., priority 2021, published 2024) are described below.

Square brackets hold non-standard residues; d marks the D form. Ends that are not written are not given here. F∗ = phenylalanine sulfonate

This experiment addresses human P-selectin-Ig chimera (human) (UniProt P16109). Nature of the experiment: SPR (Biacore): biotinylated ligand on streptavidin chip, P-selectin-Ig flowed at 0.4-100 nM.

human P-selectin-Ig chimera (human), sequence (P16109 42-771, change not shown): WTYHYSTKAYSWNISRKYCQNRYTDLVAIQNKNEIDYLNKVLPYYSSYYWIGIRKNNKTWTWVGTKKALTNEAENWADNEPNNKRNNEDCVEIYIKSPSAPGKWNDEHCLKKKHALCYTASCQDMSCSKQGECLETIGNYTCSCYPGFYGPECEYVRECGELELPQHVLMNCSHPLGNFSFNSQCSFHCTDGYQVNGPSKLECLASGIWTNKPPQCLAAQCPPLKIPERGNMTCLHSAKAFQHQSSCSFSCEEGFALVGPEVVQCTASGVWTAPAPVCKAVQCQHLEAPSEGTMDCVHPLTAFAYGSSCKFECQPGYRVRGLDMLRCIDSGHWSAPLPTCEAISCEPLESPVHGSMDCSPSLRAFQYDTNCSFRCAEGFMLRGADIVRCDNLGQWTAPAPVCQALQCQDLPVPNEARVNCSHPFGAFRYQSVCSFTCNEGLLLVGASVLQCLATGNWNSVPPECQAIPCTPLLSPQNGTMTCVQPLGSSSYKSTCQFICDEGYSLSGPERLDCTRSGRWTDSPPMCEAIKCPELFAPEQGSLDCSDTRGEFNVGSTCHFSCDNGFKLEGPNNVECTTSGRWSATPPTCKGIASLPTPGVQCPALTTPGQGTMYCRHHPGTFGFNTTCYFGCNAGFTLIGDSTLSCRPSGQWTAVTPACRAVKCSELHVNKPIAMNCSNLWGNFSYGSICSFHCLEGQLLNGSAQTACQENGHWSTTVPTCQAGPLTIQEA

B1: GSnP-6 (peptide)
peptide: KE[F∗]E[F∗]LD[F∗]DFLPET(Neu5Acα2‑3Galβ1‑4(Fucα1-3)GlcNAcβ1‑6(Galβ1-3)GalNAcα)EPL
Molecule B1 registered a Kd of 27 nM.
